Assay results taken from PMC12809078, “CtBP1/2 oligomerization promotes G9a-Mediated transcriptional repression” (The Journal of Biological Chemistry, 2025).
Where a chain is given by its changes, count along the chain named.

B1: full-length SUMO-CtBP2 (natural protein)
chain: not shown
notes: Named SUMO-CtBP2 in the pull-downs; also called SUMO-CtBP2-FL; CtBP2-FL; source: E. coli Rosetta 2 (DE3), purified (Ni-NTA); not shown: SUMO, N-terminal, kept
B2: SUMO-G9a (881–913)-FLAG (domain or fragment, human, UniProt Q96KQ7 881-913, looked up)
chain: NKEGDTAWDLTPERSDVWFALQLNRKLRLGVGN
notes: also called Pre-SET fragment; G9a Pre-SET domain; not shown: SUMO, N-terminal, kept; FLAG, C-terminal, kept
B3: SUMO-G9a^881–913-FLAG P892E (domain or fragment, human, UniProt Q96KQ7 881-913, looked up)
chain: B2 chain with P12E
notes: source: E. coli Rosetta 2 (DE3), purified; not shown: SUMO, N-terminal, kept; FLAG, C-terminal, kept
B4: SUMO-G9a^881–913-FLAG T891R (domain or fragment, human, UniProt Q96KQ7 881-913, looked up)
chain: B2 chain with T11R
notes: as for B3
B5: SUMO-G9a^881–1210-FLAG (domain or fragment, human, UniProt Q96KQ7 881-1210, looked up)
chain: NKEGDTAWDLTPERSDVWFALQLNRKLRLGVGNRAIRTEKIICRDVARGYENVPIPCVNGVDGEPCPEDYKYISENCETSTMNIDRNITHLQHCTCVDDCSSSNCLCGQLSIRCWYDKDGRLLQEFNKIEPPLIFECNQACSCWRNCKNRVVQSGIKVRLQLYRTAKMGWGVRALQTIPQGTFICEYVGELISDAEADVREDDSYLFDLDNKDGEVYCIDARYYGNISRFINHLCDPNIIPVRVFMLHQDLRFPRIAFFSSRDIRTGEELGFDYGDRFWDIKSKYFTCQCGSEKCKHSAEAIALEQSRLARLDPHPELLPELGSLPPVNT
notes: G9a (EHMT2), human, residues 881-1210; also called CD; G9a C-terminal catalytic domain; not shown: SUMO, N-terminal, kept; FLAG, C-terminal, kept

How the values were obtained:
Conditions in all cases: both partners purified
[1] = biological target: T1, His6-MBP-G9a^641-1193 (WT) (human, UniProt Q96KQ7 641-1193); test: pull-down; MBP pull-down of His6-MBP-G9a(641-1193) WT or Δ885–893 with full-length CtBP2; same procedure as the FLAG pull-down with the respective affinity resin
T1 construct: G9a (EHMT2), human, residues 641-1193 (ANK, Pre-SET and SET domains); also called WT G9a; source: E. coli, purified
T1 sequence (looked up): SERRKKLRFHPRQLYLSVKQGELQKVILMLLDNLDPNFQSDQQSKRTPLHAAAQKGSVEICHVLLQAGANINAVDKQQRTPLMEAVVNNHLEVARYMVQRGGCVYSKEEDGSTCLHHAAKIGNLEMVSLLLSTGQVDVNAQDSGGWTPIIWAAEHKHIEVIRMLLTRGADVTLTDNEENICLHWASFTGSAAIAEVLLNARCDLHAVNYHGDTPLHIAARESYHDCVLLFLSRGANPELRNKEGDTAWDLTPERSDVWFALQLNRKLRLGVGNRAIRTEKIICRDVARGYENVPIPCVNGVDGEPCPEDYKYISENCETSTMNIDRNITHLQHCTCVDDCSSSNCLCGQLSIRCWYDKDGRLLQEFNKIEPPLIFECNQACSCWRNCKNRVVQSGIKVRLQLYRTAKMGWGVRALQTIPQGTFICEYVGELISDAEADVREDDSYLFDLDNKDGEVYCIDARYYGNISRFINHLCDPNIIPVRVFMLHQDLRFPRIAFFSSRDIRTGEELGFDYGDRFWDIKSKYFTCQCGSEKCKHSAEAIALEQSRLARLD

full-length SUMO-CtBP2 = biological target: B1; test: pull-down; FLAG-tagged G9a (or GLP) fragments immobilised on anti-FLAG resin, incubated with CtBP protein 2 h at 4 °C; 50 mM Tris-HCl pH 8.0, 150 mM NaCl, 2 mM DTT, 0.1% NP-40; eluted with FLAG peptide, SDS-PAGE
CtBP2 (residues 31–364) = biological target: T2, CtBP2 (residues 31–364) (human, UniProt P56545 31-364); test: as above
T2 construct: Tag-free by the methods; source: E. coli Rosetta 2 (DE3), purified (Ni-NTA, SUMO protease, SEC; ion exchange and gel filtration for crystals); not shown: His6, N-terminal, cleaved; SUMO, N-terminal, cleaved

full-length SUMO-CtBP1 = full-length SUMO-CtBP1 (human, UniProt Q13363 1-440); test: as above

Binder	binding result [1]	binding result (full-length SUMO-CtBP2)	binding result (CtBP2 (residues 31–364))	binding result (full-length SUMO-CtBP1)
B1	binds	–	–	–
B2	–	binds	binds	binds
B3	–	binds	–	–
B4	–	binds	–	–
B5	–	binds	–	–
